The source of these data is publication PMC7118173 (Nature Communications, 2020).

Data set [1] relates to SepF. Description: Western blots of whole-cell extracts (SepF depletion / expression). The class given is cell-based, C. glutamicum. The settings on record: Pino-sepF strain, 1% myo-inositol. The method, then:
24 homogenizer. Crude extracts (120 μg) were analyzed by SDS-PAGE, electro-transferred onto a 0.2 μm Nitrocellulose membrane and blocked with 5% (w/v) skimmed milk. Membranes were incubated with an anti-SepF antibody (produced by Covalab, Supplementary Fig. 25a), an anti-FtsZ antibody (produced by Proteogenix, Supplementary Fig. 25b) or an anti-mNeonGreen antibody (purchased from Chromotek) for 1 h at room temperature.
A general note: Immunoblotting shows a protein as a band on a membrane.

Data set [2] relates to Pino-sepF strain. Nature of the data set: Growth curves / complementation of the Pino-sepF strain.
Protocol: Positive colonies were grown in BHI media supplemented with 25 µg/ml kanamycin overnight at 30 °C and 120 rpm shaking.
All strains were plated in CGXII media plates with 4% (w/v) sucrose as a carbon source for 2 days at 30 °C and then single colonies were inoculated in 10 ml of CGXII media 4% (w/v) sucrose overnight at 30 °C and 120 rpm shaking. The next day, 20 ml of CGXII media supplemented with the appropriate repressor or inducer were inoculated with the overnight cultures to a starting OD600 of 1. OD600 measurements were taken every 1.5 h. Each growth curve represents the average of three different growth curves originally from three different single colonies. […] When required, CGXII media 4% (w/v) sucrose was supplemented with either 1% (w/v) myo-inositol, 50 ng/ml tetracycline or 1% (w/v) gluconate and 25 μg/ml kanamycin.
The subject of data set [3] is C. glutamicum ATCC13032 whole-cell extracts. Description: SepF and FtsZ quantification by Western blot. The class given is cell-based, Corynebacterium glutamicum. The settings on record: 60 ugr loaded.
Data set [4] is described as follows: Negative stain EM of SepF rings. The format is physicochemical. The settings on record: 50 μM, 50 mM HEPES pH 7.4, 300 mM KCl, 10 mM MgCl2. On the procedure:
For all samples, 400 mesh carbon coated grids (Electron Microscopy Sciences; CF 400-Cu) were glow-discharged on an ELMO system for 30 sec at 2 mA. 5 µl samples were applied onto the grids and incubated for 30 s, the sample was blotted, washed in 3 drops of water and then stained with 2% (weight/vol) uranyl acetate. Images were recorded on a Gatan UltraScan4000 charged coupled device (CCD) camera (Gatan) on a Tecnai T12 BioTWINLaB6 electron microscope operating at a voltage of 120 kV.

For a further data set, the target named is T1, His6-Sumo tagged SepFΔML (Corynebacterium glutamicum, UniProt Q8NNN6 63-152).
T1 construct: SepF (cg2363), Corynebacterium glutamicum, amino acids 63 to 152; Covalently immobilised on an NTA sensor chip; also called immobilized SepF; source: E. coli BL21 (DE3), purified (Ni-NTA, dialysed directly without SUMO protease for SPR); not shown: His6, N-terminal, kept; SUMO, N-terminal, kept
T1 sequence (looked up): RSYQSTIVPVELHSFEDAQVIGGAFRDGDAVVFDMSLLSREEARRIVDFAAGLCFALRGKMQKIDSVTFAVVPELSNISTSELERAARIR
Nature of the data set: SPR; Biacore T200, 25 °C, 25 mM HEPES pH 8, 150 mM KCl, 0.1 mM EDTA; His6-Sumo SepF variants covalently immobilised on NTA chips (3000-4000 RU); FtsZCTD 1.56 to 400 µM injected; steady-state fit; apparent Kd. To be noted: both partners purified. In general terms: In SPR one partner is held on a chip, and binding of the other changes the refractive index at the surface.

Data set [5] concerns the target T2, His6-Sumo tagged SepF_(ΔML,F131A) (Corynebacterium glutamicum, UniProt Q8NNN6 63-152, F131A).
T2 construct: SepF (cg2363), Corynebacterium glutamicum, amino acids 63 to 152 with F131A; also called SepF_(F131A); source: E. coli BL21 (DE3), purified (Ni-NTA, dialysed directly without SUMO protease for SPR); not shown: His6, N-terminal, kept; SUMO, N-terminal, kept
T2 sequence (looked up): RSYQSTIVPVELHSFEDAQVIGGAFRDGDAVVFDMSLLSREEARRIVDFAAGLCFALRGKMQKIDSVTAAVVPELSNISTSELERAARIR
The data set is described as above. To be noted: both partners purified.

Data set [6] deals with the molecule itself. Description: crystal structure; SepF_(ΔML,Δα3) 17 mg/ml alone, 0.1 M MES pH 6, 20% PEG MME 2000, 0.2 M NaCl, 18 °C.
Data set [7] concerns the molecule itself. Nature of the data set: turbidity + dynamic light scattering; SepF or SepF mutant with SUVs (POPC:POPG 8:2), 50 µM each, 100 mM KCl, 10 mM MgCl2, 25 mM Pipes pH 6.9, 25 °C.
The test system of data set [8] is Pino-sepF strain. Description: Cell length distribution (violin plots), Pino-sepF strains. The class given is cell-based, Corynebacterium glutamicum.
Protocol: For imaging, cultures of C. glutamicum were grown in BHI or minimal medium CGXII during the day, and washed and inoculated into CGXII media for overnight growth. The following day cultures were diluted to OD600 = 1 and grown to the required OD (early exponential phase) for imaging. For HADA labeling, cultures were incubated with 0.5 mM HADA for 20 min at 30 °C in the dark. Two percent agarose pads were prepared with the corresponding growth medium and cells were visualized using a Zeiss Axio Observer Z1 microscope fitted with an Orca Flash 4 V2 sCMOS camera (Hamamatsu), and a Pln-Apo 63×/1.4 oil Ph3 objective. Images were collected using Zen Blue 2.6 (Zeiss) and analyzed using the software Fiji[70] and the plugin MicrobeJ[71] to generate violin plots and fluorescent intensity heatmaps. […] The experiments were performed as biological triplicates.
For the next data set, the system named is WT C. glutamicum. Description: Number of ring-like structures per cell, overexpression in WT. The class given is cell-based, Corynebacterium glutamicum.
Data set [9] deals with the molecule itself. Nature of the data set: crystal structure; SepFΔML 10 mg/ml with FtsZCTD 5.8 mg/ml (1:5 molar ratio), 100 mM sodium acetate pH 4.6, 30% PEG 4000, 18 °C; 1.6 Å.
Data set [10] relates to SepF. Description: SepF polymerization (turbidity) assay in the presence of SUVs. The settings on record: SepF (or mutant) plus SUVs 50 µM each, pH 6.9, 25 °C. The class given is biochemical, C. glutamicum. On the procedure:
When used, FtsZCTD was added at a final concentration of 100 μM.
Reverse phase evaporation was used to prepare small unilamellar vesicles (SUVs). A 10 mM lipid solution made of an 8:2 mixture of 1-palmitoyl-2-oleoyl phosphatidylcholine (POPC) and 1-palmitoyl-2-oleoylglycero-3-phosphoglycerol (POPG) (Avanti Polar Lipids) was prepared as described. Chloroform was removed by evaporation under vacuum conditions and the dried phospholipid film was resuspended in a mixture of diethyl ether and buffer (25 mM Hepes pH 7.4, 10 mM MgCl2 and 150 mM KCl). Diethyl ether was eliminated by reverse phase evaporation and by slowly decreasing the pressure to the vacuum. SUVs were obtained by sonication during 30 min at 4 °C. The diameter and charge of SUV were determined by measuring dynamic light scattering (DLS) and electrophoretic mobility profiles on a Zetasizer Nano instrument (Malvern Instruments).

The nature of a further data set: Dynamic light scattering. The format is physicochemical. To be noted: protein alone. The method, then: Polydispersity of the samples was measured using Dyna-pro Plate Reader (Wyatt technology) equipped with an 830 nm laser and a temperature control module. The Dynamics software (version 7.9) was used to schedule data acquisition and data analysis. For each well, 20 measurements of 10 s were averaged and this operation was repeated 20 times for each condition at 25 °C. For samples containing FtsZCTD, the peptide was used at a final concentration of 100 µM. All the experiments were carried out as minimum three biological and technical replicates.

Data set [11] can be described thus: Negative stain EM of SUVs with SepF. The format is biochemical. To be noted: SepFΔα3 + SUVs, upon addition of FtsZCTD.

For `O[C@H]1[C@H](O)[C@@H](O)[C@H](O)[C@@H](O)[C@H]1O` [myo-inositol, reference compound], the SepF protein level result in the data set on SepF [1] is on record as “rapid depletion of SepF”. The “growth of Pino-sepF” value with Pino-sepF strain [2] (1% myo-inositol, after the first 6 h) is “growth stopped for the depleted strain”.

Take FtsZ: C. glutamicum FtsZ (cg2366): the “band volume in whole-cell extract” value in [3] (ON S (over-night, sucrose)) stood at 14.8379; in data set [3] (ON S+G (over-night, sucrose + gluconate)), 18.4228; in [3] (T6 S (6 h, sucrose)) it was 20.1825; in [3] (T6 S+G (6 h, sucrose + gluconate)) it was 23.8045.

B1: M. tuberculosis SepFΔML (domain or fragment)
chain: EDGHPLSKITTLRPKDYSEARTIGERFRDGSPVIMDLVSMDNADAKRLVDFAAGLAFALRGSFDKVATKVFLLSPADVDVSPEERRRIAETGFYAYQ
notes: also called MtbSepFΔML
For B1, the ring diameter in [4] is ~ 40 nm.

B2: FtsZCTD peptide (conserved C-terminal domain of C. glutamicum FtsZ, 10 residues) (peptide)
peptide: DDLDVPSFLQ
notes: C-terminal 10 residues of FtsZ (cg2366), Corynebacterium glutamicum; the printed residues D436, P438 and F440 place the peptide at 433-442; also called FtsZ C-terminal domain peptide; source: synthetic peptide, bought: Genosphere
For the molecule B2, the Kd with His6-Sumo tagged SepFΔML is 15 µM; in data set [5], 340 µM.

B3: SepF_(ΔML,Δα3) (domain or fragment, Corynebacterium glutamicum, UniProt Q8NNN6 63-137, looked up)
chain: RSYQSTIVPVELHSFEDAQVIGGAFRDGDAVVFDMSLLSREEARRIVDFAAGLCFALRGKMQKIDSVTFAVVPEL
notes: SepF (cg2363), Corynebacterium glutamicum, amino acids 63 to 137 (core domain without the C-terminal helix α3); Dimers associate into linear polymers in the crystals; source: E. coli BL21 (DE3), purified (Ni-NTA, SUMO protease, SEC); not shown: His6, N-terminal, cleaved; SUMO, N-terminal, cleaved
As for B3, the binding result in data set [6] is recorded as “binds”.

B4: full-length C. glutamicum SepF (recombinant) (natural protein, Corynebacterium glutamicum, UniProt Q8NNN6 1-152, looked up)
chain: MSMLKKTKEFFGLAPYEAEHEDAYYADEPRYEGTAAYAPEYRERDYGYAPEAPAPVAPSPAPRSYQSTIVPVELHSFEDAQVIGGAFRDGDAVVFDMSLLSREEARRIVDFAAGLCFALRGKMQKIDSVTFAVVPELSNISTSELERAARIR
notes: SepF (cg2363), Corynebacterium glutamicum, full length; source: E. coli BL21 (DE3), purified (Ni-NTA, SUMO protease, SEC); not shown: His6, N-terminal, cleaved; SUMO, N-terminal, cleaved
B4: in data set [7], the binding result is reported as “binds”.

B5: SepF-Scarlet: mScarlet-I fused on the C-terminal side of SepF (protein)
chain: MSMLKKTKEFFGLAPYEAEHEDAYYADEPRYEGTAAYAPEYRERDYGYAPEAPAPVAPSPAPRSYQSTIVPVELHSFEDAQVIGGAFRDGDAVVFDMSLLSREEARRIVDFAAGLCFALRGKMQKIDSVTFAVVPELSNISTSELERAARIR
modifications: left off: mScarlet-I, C-terminal, kept
Regarding B5, the mean cell length in the data set on Pino-sepF strain [8] (1% myo-inositol + 1% gluconate, t = 6, replicate 1, listed as PgntK_SepF_Scarlet) was 5.38. Also, the “cell elongation on complementation” value in the data set with Pino-sepF strain [8] (PgntK, compared with control cells) is recorded as “cells were more elongated than control cells”. Besides, the “frequency of cells with n septa (ring-like structures)” value (from here on “frequency of cells with n septa”) in the data set on WT C. glutamicum (n septa 0, replicate 1) was 0.369; with WT C. glutamicum (n septa 0, replicate 2), 0.283; with WT C. glutamicum (n septa 0, replicate 3) it was 0.282; with WT C. glutamicum (n septa 1, replicate 1) it was 0.513; with WT C. glutamicum (n septa 1, replicate 2) it was 0.547; in the data set on WT C. glutamicum (n septa 1, replicate 3), 0.565. For the same molecule, the “frequency of cells with n septa” value amounted to 0.104 in the data set on WT C. glutamicum (n septa 2, replicate 1); 0.153 in the data set with WT C. glutamicum (n septa 2, replicate 2); 0.127 with WT C. glutamicum (n septa 2, replicate 3); 0.014 in the data set on WT C. glutamicum (n septa 3, replicate 1); 0.017 with WT C. glutamicum (n septa 3, replicate 2); 0.025 in the data set with WT C. glutamicum (n septa 3, replicate 3). Besides, the “frequency of cells with n septa” value with WT C. glutamicum (n septa 4, replicate 1) amounted to 0; with WT C. glutamicum (n septa 4, replicate 2), 0; in the data set on WT C. glutamicum (n septa 4, replicate 3) it was 0; in the data set with WT C. glutamicum (n septa 5, replicate 1), 0; in the data set on WT C. glutamicum (n septa 5, replicate 2), 0; in the data set with WT C. glutamicum (n septa 5, replicate 3), 0. In addition, the “frequency of cells with n septa” value in the data set on WT C. glutamicum (n septa 6, replicate 1) came out at 0; with WT C. glutamicum (n septa 6, replicate 2), 0; in the data set with WT C. glutamicum (n septa 6, replicate 3), 0; in the data set with WT C. glutamicum (n septa 7, replicate 1), 0; in the data set on WT C. glutamicum (n septa 7, replicate 2), 0; in the data set on WT C. glutamicum (n septa 7, replicate 3), 0. Besides, in the data set with WT C. glutamicum (overexpression in WT background), the “ring-like structures per cell” value is on record as “mostly single rings at mid-cell”. Further, the “complementation of SepF depletion (growth)” value in the data set on Pino-sepF strain [2] (SepF depletion with 1% myo-inositol, exogenous construct induced) is “complemented the SepF depletion strain for growth”.

B6: C. glutamicum SepF C-terminal core domain (SepFΔML), tag removed (domain or fragment, Corynebacterium glutamicum, UniProt Q8NNN6 63-152, looked up)
chain: RSYQSTIVPVELHSFEDAQVIGGAFRDGDAVVFDMSLLSREEARRIVDFAAGLCFALRGKMQKIDSVTFAVVPELSNISTSELERAARIR
notes: Gene codon optimised and synthesised for E. coli; homodimer in the crystal; also called globular core of SepF; source: E. coli BL21 (DE3), purified (Ni-NTA, SUMO protease, SEC); not shown: His6, N-terminal, cleaved; SUMO, N-terminal, cleaved
In the case of B6, in [9], the binding result is reported as “binds”.

B7: SepFΔα3 (domain or fragment, Corynebacterium glutamicum, UniProt Q8NNN6 1-137, looked up)
chain: MSMLKKTKEFFGLAPYEAEHEDAYYADEPRYEGTAAYAPEYRERDYGYAPEAPAPVAPSPAPRSYQSTIVPVELHSFEDAQVIGGAFRDGDAVVFDMSLLSREEARRIVDFAAGLCFALRGKMQKIDSVTFAVVPEL
notes: SepF (cg2363), Corynebacterium glutamicum, amino acids 1 to 137 (without the C-terminal helix α3); source: E. coli BL21 (DE3), purified (Ni-NTA, SUMO protease, SEC); not shown: His6, N-terminal, cleaved; SUMO, N-terminal, cleaved
On to B7, for which the binding result in [7] is reported as “binds”.

B8: SepFΔα3: SepF amino acids 1 to 137, lacking the regulatory C-terminal helix (protein)
chain: MSMLKKTKEFFGLAPYEAEHEDAYYADEPRYEGTAAYAPEYRERDYGYAPEAPAPVAPSPAPRSYQSTIVPVELHSFEDAQVIGGAFRDGDAVVFDMSLLSREEARRIVDFAAGLCFALRGKMQKIDSVTFAVVPEL
modifications: left off: His6, N-terminal, cleaved | SUMO, N-terminal, cleaved
As to B8, the “polymerization with SUVs (turbidity)” value with SepF [10] was “polymerization and vesicle tubulation were also seen but could only be partially reversed”. In “Dynamic light scattering”, the “dispersity by DLS” value is listed as “monodisperse”. The “reversal by FtsZCTD of particle formation and vesicle tubulation” value in data set [11] is recorded as “only partially reversed”.
